Experiment: soluble on expression in E. coli; label from the status in PepcDB or PDB records
In the case of “AHHHHHHGSAEMVIPYPHLQRILEKTCELAVTKPMAERMMEIVERKLADLFEVAYENATAENSETIKMRHIPITKGFRSSMNLFRAVIEDENIKIEPILDYVLRKIPADKPLEEEVINELPIITGTLFVLIGRVIKALHPEVRNVYPEHIEEAEKVLDYTL”, the “soluble on expression in E. coli” value was “soluble”. For “AHHHHHHGSEEYYVCPECGSEDVEVIKERGREVTLRCNECGYVWMITLPKLREIPVIVSKHERSFREKAVLPEDEVIKVGDVIEIENDQVKVLSIELPGGKRVRKAKVAEIQTIWGESLTYPKVFGVSIYLPGGITQSFKVVVDREEEFVVGEVIEVGGYTFKVEMIKTEKKLMRSGKAKAENIVRLMGHAIKGRARRKLKIYEGYDSISAENQ”, the “soluble on expression in E. coli” value was “not soluble”. In the case of “AHHHHHHGSFTGKVLIPVKVLKKFENWNEGDMILLEDWKAKELWESGVVEIIDEADKVIGEIDRVLSEEKKNLPLTPIPEGLYEKAEFYIYYLEKYIQEKVDNIETIQTKVTKLANLKKKYKTLKEIRFKKILEAVRLRPNSMEILARLSPAEKRIYLEISKIRREWIGD”, the “soluble on expression in E. coli” value was “not soluble”. For “AHHHHHHGSGKLDWIREELEELKKKGLYVTIRVLQSAQGPWVIVNGKKVLNMCSNNYLGLAAHPKIKEAAIRAILDYGVGAGAVRTIAGTMDLHVELEEKLAKFKKREAAILFQSGYNANLGAISALLRKGEDGVFLSEELNHASIIDGMRLSGAPKVIYKHLDMEDLKKKLEENKDKKKKIIVTDGVFSMDGDLAPLPEIVELAEQYDAIVYVDDAHGEGVLGSHGRGIVDHFNLHDKVDFEMGTLSKAFGVIGGYVAGPEEAIEYLKQRARPFLFSSAPNPPDVAAAIAAVEILQKSDDLVKKLWDNTHFLQKGLRDLGYDLGNTKHPITPVMLYDEKLAQEFSRRLFEEYNIFAQAIVYPTVPLGTARIRLEPSAAHTKEDLKLVIDAFEDLGRKTGFLK”, the “soluble on expression in E. coli” value was “soluble”. In the case of “AHHHHHHGSGKRVVIALGGNALQQRGQKGSYEEMMDNVRKTARQIAEIIARGYEVVITHGNGPQVGSLLLHMDAGQATYGIPAQPMDVAGAMSQGWIGYMIQQALKNELRKRGMEKKVVTIITQTIVDKNDPAFQNPTKPVGPFYDEETAKRLAREKGWIVKEDSGRGWRRVVPSPDPKGHVEAETIKKLVERGVIVIASGGGGVPVILEDGEIKGVEAVIDKDLAGEKLAEEVNADIFMILTDVNGAALYYGTEKEQWLREVKVEELRKYYEEGHFKAGSMGPKVLAAIRFIEWGGERAIIAHLEKAVEALEGKTGTQVLP”, the “soluble on expression in E. coli” value was “soluble”. With “AHHHHHHGSIRVRNLSFSYNGRAILRDIAFEVKEGEFLAILGPNGAGKSTLLRCLAKILKCEGEIEICGRNLHEYSRRELSKTIAYVPQRVEPNFLRVFDMVLLGRKPYMGIIPSEEDIKAVERALKTLKIEHLAGRLTKTLSGGELQKVAIARALAQESSIILLDEPTNNLDPRSQVDLMNLLRKLSQAGKTIVTVMHDINLALRFAEKLMFMKNGEVVGIVETKKISPEIIEETFNVKAEIFETPSGVKFCQFY” the “soluble on expression in E. coli” value was “soluble”. For “AHHHHHHGSITLELHPSEIARYFELEECSHYFSNLLLRKRGELQEFEPIIRRKEIETIELAKWGDEFELSLLQEFKKGEALKKLGVKELPRFYGFLTENDTPVRKFFEKYFKDGIIVEEDPDKLLEIINSEKSAVIYQAPLKGRIGKFDVSGRADFIIKVGKTLYLLEAKFTKEEKFYHRIQAIIYAHLLSQMIEGYEIKLAVVTKENFPIPSNFLRFPGDVEELKITLEEKLGGILREQELWIDARCTTCPFEALCLSKALEERSLGLLSLPPGIIRILKEEGIKDLKDMAKLFEFKENSPTNFEEPSIKDPKKTQEIAKRTGINLLKLSRIAQAILKYLDEGETTPLFIPRTGYNLPMDERVGDVEPSYYPPRSLVKVFFYVQTSPITDTIIGISALVKNRQNGERIIVKFVDEPPIEVSDAQEKERMLLIEFFRDVIDAVKSLSPTDKVYLHMYFYNRKQRDDLMDAVKRHKEIRENNAVMALLSLRRAIDWESFSIIKDEIIRRHALPLSPGLGFVTVATQFGYRWRRNKTFARMLEVVARRENGKINLKTLLNISETGIGPEYYPIIDRDNEGIPFTLFWSALVKLATEEDNSRIKRDIRDILSQMVEALKTIEERIPEQYKDAFVKKEGIPKEDLENFDIKKEELADILLEYLQLEFDARFRERSEYYRLPLSIRAYSEESALIKIENIEKKKNDCLLFGKIVLIDENGRIKEYNPKEVLIDIDEGSLVVVTPKKFLDKLRRDPVQRISKSPLGIVEAIDHETGKVVIRLIRVSPGRFTLKHSKFSCKNGLLTITYPEGEVKVTPGEIVIVDPSVDDIGMERAYNVLSEISQGELKHEIYQKVKAIYEGNTESRYEVNIWKKKHIEEFLSRVKKINEEQKKFAIDINNFLVTLQGPPGTGKTSGAIAPAILARAYSMVKDKKNGLFVVTGVSHRAVNEALIKTLKLKKELENTLKELRKIDLIRAVSGEEAIKIIKEELEREIKDDVDRIRFTAQEITHSSKQRSLDKYFANSGTVRIVFGTPQTLNKLMKNTKEVELVVIDEASMMDLPMFFLSTKVCKGQVLLVGDHRQMEPIQVHEWQLEDRKTFEEHYPFLSALNFIRFLRGELDERELKKFKRILGREPPEWKKDKNEVLPLYRLVRTYRLPQEIADLLSDAIYRADGIKLISEKKKRRKIIARHKDEFLSIVLDDRYPFVLILHDEGNSTKINELEAKIVEKIIKRVENIDIGVVVPYRAQKRLIASLIDSAQVDTVERFQGGEKSLIVISMTSSDPRIPGKGF”, the “soluble on expression in E. coli” value was “not soluble”. With “AHHHHHHGSKAVTFPVPWEYLKRIFEGKNVFVKPATLRVEEGMKVIFYASRENQGWHGEAEVERVEYYTSVEEIIKKYRDKLFLTPEELRRYERDRARWDSGRRKRPWMVLVLRNIEKYPRVVKPKKFIVVSGRYVDEKEYEEIRRSTS” the “soluble on expression in E. coli” value was “not soluble”. In the case of “AHHHHHHGSVERSKVRVLIAKPGLDGHDRGAKVVARALRDAGYEVIYTGIRQTPEQIVEAVIEEDVDVLGISILSGAHMVLIPKILKLLEEKGIKPGEDILVVAGGIIPPDDAEELKKMGVAEVFGPGTPLKTIIEFIDKNVEKLKKFRSST”, the “soluble on expression in E. coli” value was “soluble”. With “AHPELKSSVPQADSAVAAPEKIQLNFSENLTVKFSGAKLTMTGMKGMSSHSPMPVAAKVAPGADPKSMVIIPREPLPAGTYRVDWRAVSSDTHPITGNYTFTVK” the “soluble on expression in E. coli” value was “soluble”. For “AIAADTVDGKKEEADYKRLHNFPLIRHTDMPEEMRVETMELCVTACEKFATNNESAAKMIKESMDKKFGSSWHVVIGEGFGFEITHEVKNLLYMFFGGSLAVCVWKCS”, the “soluble on expression in E. coli” value was “soluble”. With “AIADAFEHENRYVHAVYEAIGDHFSATRYRTWPRVQAFLEQLAHEALVLDSGAGNGKYALPVLRQHGYYIAADRCRRLLLRARWQSDALEAQETALLPVECVQADCLFLPFRSGVFDVALSIAVIHHVATARRRVGAVVELGRVLRPTGHALVYVWALRAIPLKLRSRAQSTMDGYLLPWHHKRSTGADALPQKKSDSPSQTYFRFYHLFEEDELRMLVEEANAVSKEGAATTWTLRITGETFDHQNYVVEFQRQNIHALLEDAADNILHPSI” the “soluble on expression in E. coli” value was “soluble”. For “AIAELFTLGACRQVGKSCFVLKTSEGLVMLDCGLHPSYQDDRRYPNFSLAFSYGPLKAVFITHCHADHVGALPILTERWGYDGPIYMSEPTRKLSYYILEECVGSWGGDDEWTDSSRSEWSYTQREVESCLTKVTIMEPGQSISVGENVQVHSWMAGHVLGAYMFSIVVDNHRILYTGDFTSCPTFHLPPARVDDIPYPPDVILSEATYATSFKDGRLNNQVEFIQNVLDCLLDGGKVLVPVFAIGRAQELLLLLGK”, the “soluble on expression in E. coli” value was “soluble”. With “AIAFKRKTAWFSDSVEKEVISFWVSEGGDISSWKTAGYLFSDDASSEDTKRIYGSEDYVKNRATVFHSSFLLACQPRQSVTSVPIGHYVLPPDFVQNEMKAIIGRFIWEKDEQVICEEQINPEVPKDILSGETEDHALRERSSQDDYQTVTSQSKVCSCCEMRQYPVNNMISGYVHIDQMRKYSGELKDFLPSLHGHDVSRSNDPTPPFHRKAV” the “soluble on expression in E. coli” value was “soluble”. For “AIAMQISDTYNQKHSLFNAMNRFIGAVNNMDQTVMVPSLLRDVPLDMEVKDEVHNTIGATNYFSRTDMHGYYILLKSIRNDIEWGVVQGEDRKKDKLSNMEISRLEDGDGEEDLEKQFHYHLSGLHTVLNKLTRKAHILTNRYKEEIGFGSWGH”, the “soluble on expression in E. coli” value was “soluble”. For “AIARSEWPFDYASEADAMLHRITPENFEKLVRFAARLLRVGEIIALPTDTVYGLAAAARNSHGIELLYQTKQRDLRKPLAIAVPSVEDVSVYLHTEHLPPGLLEAILPGPLTLLLRQREDYVGIDLQDVRIDQYRGWERAKRLAPNLNLRRDGLLGVRVPDASFACAVSRELGDPLALTSANVSGRGDCGSVDEFRALWSACAAVFDGGAMPKPVMPSTVVDLSVPGTFRITRAGWMATDLVRILENKFGLTNKSANTSN”, the “soluble on expression in E. coli” value was “soluble”. In the case of “AIASERLYYFVIVGRDDRVLYDLLYPASLSELDWRTSSELSSPAERGDFEPHHFIPSIQVLLQFVAYSALDHIEEKYWLTSARSLKHIFRFRDWSASVQLTPNAATRFVLVHGASDDASRNVRAFLHAVYEAYVPHVVCNPFQEEDAPITSKRFHEVAKNLAKRYFSG”, the “soluble on expression in E. coli” value was “soluble”. In the case of “AIPLTLFYKFTYPIIVAFNKSTDLVLKLFGIKQVDEHEEAHTDEEIRMLVEESYKHGLIDKTELTFVDNVFDFSEKTVKEIMVPRTDMKCIFVEDSFDDIVGVTIDEHFTRYPVCEESKDNIIGLIHIKDLYKLKINKEDEKIESIIREIKFVPESMSISELFRMFQKERMQMAIVIDEYGGTFGLVTIEDILEEIVGEIQ”, the “soluble on expression in E. coli” value was “not soluble”. With “AIYHLTAKTGSRSGGQSARAKADYIQREGKYARDMDEVLHAESGHMPEFVERPADYWDAADLYERANGRLFKEVEFALPVELTLDQQKALASEFAQHLTGAERLPYTLAIHAGGGENPHCHLMISERINDGIERPAAQWFKRYNGKTPEKGGAQKTEALKPKAWLEQTREAWADHANRALERAGH” the “soluble on expression in E. coli” value was “soluble”. For “AKDAVLSVDGIIVARSSNEITDLIPGATLALSGKTTDPATLSVSRDTQLAEAAMTYMVEELNATMKLLGELTRRSTDGSGSGELAGDRVVETLKRQVTALIGQPLTGHGEKPVYLSQLGVSTNRDGSLSFNASAFQKAFEKTPQIFDAMFTDSLTAITPGASIAGKAASSAASGDYIFRLDPVTGEATVGGGATLALPGANGASQYLVLSGGLAGVMVSVESGVTDATLRFGRSFATQLQALLDTAAGQNGAISDREGQIGKVAEEQAKVIEALDARAAKLESRYLAQFTAMEQAVSRMKSTGTYLENLISAWNKD”, the “soluble on expression in E. coli” value was “not soluble”. In the case of “AMGVPCVEDEDFIQALDKMMLENLQQRSGESVKVHQLDVAIPLHLKSQLRKGPPLGGGEGEAESADTMPFVMLTRKGNKQQFKILNVPMSSQLAANH”, the “soluble on expression in E. coli” value was “soluble”. For “AMMIGIIGAMEEEVTILKNKLTQLSEISVAHVKFYTGILKDREVVITQSGIGKVNAAISTTLLINKFKPDVIINTGSAGALDESLNVGDVLISDDVKYHDADATAFGYEYGQIPQMPVAFQSSKPLIEKVSQVVQQQQLTAKVGLIVSGDSFIGSVEQRQKIKKAFPNAMAVEMEATAIAQTCYQFNVPFVVVRAVSDLANGEAEMSFEAFLEKAAVSSSQTVEALVSQL”, the “soluble on expression in E. coli” value was “soluble”. For “ANCAVCDSPGDLLDQFFCTTCGQHYHGMCLDIAVTPLKRAGWQCPECKVCQNCKQSGEDSKMLVCDTCDKGYHTFCLQPVMKSVPTNGWKCKNCRICI”, the “soluble on expression in E. coli” value was “soluble”. In the case of “ANCSIMIDEIIHHLKRPPNPLLDPNNLNSEDMDILMERNLRTPNLLAFVRAVKHLENASAIESILKNLLPCLPLATAAPTRHPIHIKDGDWNEFRRKLTFYLKTLENAQAQQ”, the “soluble on expression in E. coli” value was “soluble”.

— the DeepSol protein solubility set
